System: MS2 coat protein
Assay: apparent KD of MS2 coat protein; designed switch direction (-1 OFF switch, 1 ON switch): -1; higher = weaker reporter binding
Summary of the method: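 Stalled E. coli RNA polymerase transcribed designed RNA switches on Illumina chips, which were then titrated with SNAP-549-labelled MS2 coat protein, doubling from 0.7 or 1.5 nM to 3 µM. Steps lasted from 0.8–1.5 h at the lowest concentration to 10–20 min at the highest. The apparent KD is each design's median over clusters of curve-fitted normalised fluorescence.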

[1] = input ligand: microRNA oligo, concentration not stated
[2] = Eterna round: R95, input ligand: microRNA oligo, concentration not stated
[3] = Eterna round: R95, input ligand: FMN 200 uM
[4] = Eterna round: R95, input ligand: none

Sequence	apparent KD of MS2 coat protein (input ligand: FMN 200 uM) [nM]	apparent KD of MS2 coat protein [1] [nM]	apparent KD of MS2 coat protein (input ligand: none) [nM]	apparent KD of MS2 coat protein [2] [nM]	apparent KD of MS2 coat protein [3] [nM]	apparent KD of MS2 coat protein [4] [nM]
AAGAAGAUCAAAGGAUAUGGAGCUGAAACGGCGCUAGAAGGUUGUCUAGUGUAACAUGAGGAUCACCCAUGUAGGGACCUCUAA [AK ExNG1-V2-2] (Eterna round: R96, puzzle: Exclusion NG 1)	562	385	644			
GUUAAUUGUGACAUGGGUGACAUGAGGAUCACCCAUGUCACAAGCUUUUUGCUCGUCUUAUAAUUAACCCAUGUCAC [Stov1/13-A2] (Eterna round: R97, puzzle: Sensor, turn-off variant 1)	29.1		41.2			
GCCUACGCAGGAUAUGUCCAGGGAAACAUGAGGAUCACCCAUGUGGAGUGGACUCGGGUUGCAGAAGGGCGGGCAC [Eternabot (Original) Solution 3] (Eterna round: R97, puzzle: Exclusion 5)	21.2		16			
CCGAAACAUGAGGAUCACCCAUGUGAGGAUAUGAGCGUCUAGUUGAGAGAUUGGACGCUCAGAAGGCACAUUGG [JR_Ex1_Sub075] (Eterna round: R97, puzzle: Exclusion 1)	76.7		121			
UUUUUUGUAGUGAGGAUAUCGUUGUGGAUGUGGAUCGAGAAGGCACAUGAGGAUCACCCAUGUUAGUUGUGGUU [JR_BMOE4_Sub084] (puzzle: Brourd's mod of Exclusion 4)				188		
GUAUGUGACGAGGAUAUCACCUUGUUACUUAGAUGAGAAGGCGUCACAUGAGGAUCACCCAUGUGAUGAAAAGA [EX6 A.14] (Eterna round: R97, puzzle: Exclusion 6)	27.4		21.4			
GCACAGACAGGAUAUACAUGAGGAUCACCCAUGUGACCCUUAUAGUACUCGCGUACAAGUAGAAGGGUCUGUGC [Omei Ex3 Model Bachelor's Dilema v32] (Eterna round: R97, puzzle: Exclusion 3)	320		832			
CCAGGCAGUGUGAGGAUAUGCUGGUCCUUGGAUCAGCAGAAGGCACAUGAGGAUCACCCAUGUGAAUAGCUUGG [JL bmx4 3.25] (puzzle: Brourd's mod of Exclusion 4)				20.5	105	21.8
UUGAUGUGAGGAUAUAUAUGGUUGUUUUUUUAUUUUUUAUUACUUGAGGAUCACCCAAGUAGAAGGCGCUACGU [JR_Ex2_Sub068] (Eterna round: R97, puzzle: Exclusion 2)	25.5		29.5			
ACAAGCUUUUUGCAUGUUAGUUUUGUUGCUUCGUAUGUAACAUGAGGAUCACCCAUGUAAGACUGAUGUCGUCGUUU [JR_SV3TOV2_Sub088] (puzzle: Sensor v3, turn-off variant 2)				47.8	44.9	61.6
CCGGAAAUACAGGAUAUCGUAUCGGAUACGAUACGAGAAGGGUAUACAUGAGGAUCACCCAUGUGUCCUACCGG [Fiskers Ex 6 - 51] (puzzle: Exclusion 6)				23.6		
ACAAGCUUUUUGUUCGUCUUAUAAUAAUAAAUAAAUAUAACAUGAGGAUCACCCAUGUUGAGAAGACAGCCUCAUGU [Sesor Array 23 - Jieux - Sensor v3, turn-off variant 2] (puzzle: Sensor v3, turn-off variant 2)				42.7	121	104
UUUAAUUUUUUUUUUUUACAAGCUUUUUGCUCGUCUUAUACAUGAGGAUCACCCAUGUAAAUGGAGGGUAAAUUAUC [JMF 83] (puzzle: Sensor v3, turn-off variant 2)				32	14.8	11.1
ACAUGUAUUGCAGGAUAUGGGACACAUGAGGAUCACCCAUGUGACUACAUGUCAUACCACGGGUCUCAGAAGGGUAUGUACAUG [Ex NG2 #40] (Eterna round: R96, puzzle: Exclusion NG 2)	28.9	15.1	23			
UGCGGUAGAGGAUAUACGUAGAAUUAGAUUCAUGUAAAACUACAUGAGGAUCACCCAUGUAGAAGGCUAUCGCU [JL-ex2-4.31 Eli mod] (Eterna round: R97, puzzle: Exclusion 2)	102		19.3			
GCCGGAGCAGGAUAUUCAAUAUCACACAUGAGGAUCACCCAUGUCCAGCGAAAGCUGGAGGGAGAAGGGCUCUGGC [Fiskers Ex 5 - 15] (puzzle: Exclusion 5)				56.1		
UUUUAGCAAGCGAGAUCCCACAUGAGGAUCACCCAUGUGCAUCCAGAAUUACUGGGUGCAAAAGCUCGUCUUAUAUA [Winner reversed engineered] (Eterna round: R97, puzzle: Sensor, turn-off variant 1)	54.9		50.1			

Sequence	apparent KD of MS2 coat protein (input ligand: FMN 200 uM) [nM]	apparent KD of MS2 coat protein [1] [nM]	apparent KD of MS2 coat protein (input ligand: none) [nM]	apparent KD of MS2 coat protein [2] [nM]	apparent KD of MS2 coat protein [3] [nM]	apparent KD of MS2 coat protein [4] [nM]
GCAGCGUAGUCUAAAUAAGACAUACAUGAGGAUCACCCAUGUCAGGAUAUGGUCUGGAUUACAGGCCAGAAGGGACAAAGCUGC [Eli exng3 - 002] (Eterna round: R96, puzzle: Exclusion NG 3)	21.4	16.5	17.7			
AACCUAAGGCAAAGCUUUAGGUGUACAUGAGGAUCACCCAUGUAGGAUAUGGUAGGCAAAGCUUACCAGAAGGACAUUAUGAUA [Mat - Exclusion NG 3 - Mod of JL - D53] (Eterna round: R96, puzzle: Exclusion NG 3)	82.1	27.5	55.2			
CUGAGCAGACGGAGAUCCAACAUGAGGAUCACCCAUGUCUCAUAAGCUUUUUGCUUGUCUUAUCCUCCUCUGUUCUC [Mariedxeor] (puzzle: Sensor v3, turn-off variant 1)				315	17.7	14.4
UCUUAGUCAGGAUAUACAUGAGGAUCACCCAUGUAAAAUUUUAAUUUAAUUUUAAGGUGUAGAAGGGACCACUU [Ex3 #19] (Eterna round: R97, puzzle: Exclusion 3)	22.2		29			
AUACCACGAGGAUAUCGUCUAUUUCACAUGAGGAUCACCCAUGUUAUCCUUGUUUCGUUUCGAGAAGGCGUGUUUU [JR_E5_Sub076] (puzzle: Exclusion 5)				43.8		
UUAGUGUGAGGAUAUGGUAAAGAUAAGAUGAUGAAAGAACUCCAGAAGGCACAUGAGGAUCACCCAUGUAGAUG [JL-ex4-2.13 Jieux mod] (puzzle: Exclusion 4)				35.4	67.4	30.6
GCAGUGCGAGGAUAUACAUGAGGAUCACCCAUGUGAGAAUAAGAAGUGAGGAAGAAAAGUAGAAGGCGCGUUGG [Mat - Exclusion 3 - Mod of Salish D66] (Eterna round: R96, puzzle: Exclusion 3)	103	49.5	52.6			
UAUUUAGCAAGCAGAUCCCACAUGAGGAUCACCCAUGUUUUCUGAAAAUAAAUUAAAAUAGCUGAAGCUCGUCUUAU [Winner reversed engineered 38] (Eterna round: R97, puzzle: Sensor, turn-off variant 1)	139		137			
AUCAUAUAACAAGCUUUUUACAUGAGGAUCACCCAUGUGGUUUUUAGUCUUAUCCCGGGCCCGAUAUCGGGCCCGGG [-33.4, -54.7, A 22%] (Eterna round: R97, puzzle: Sensor, turn-off variant 1)	22.8		24.2			
AGCCAAGCAGGAUAUAUCCGGGAUAACAUGAGGAUCACCCAUGUGACCGCUUGAUAUCCUAUAGAAGGGCUUGGGA [Mod of ViennaUCT 24 - Jieux - Exclusion 5] (Eterna round: R97, puzzle: Exclusion 5)	54.8		24.9			
GCUUCGGCAGGAUAUACAAUGAAGUUGAGAAAUCGGCUUCGACAUGAGGAUCACCCAUGUAGAAGGGUUGAAGU [-26.3, -24 kcal, A 32% 3, 3 bis] (Eterna round: R97, puzzle: Exclusion 2)	36.3		48.6			
UAUCUACAUGUAGGAUAUGCGUGGCGAAGCUAUGCAGAAGGACAUGAGGAUCACCCAUGUUUUAGCGUCUGCGUACAGAUGCGU [JL ENG1 1.48] (Eterna round: R96, puzzle: Exclusion NG 1)	149	16.4	23.2			
GAUCCACAUGAGGAUCACCCAUGUGAGGAUAUGAUACUAUGUACUUCGGUACAUAGUAUCAGAAGGCACGGAUC [Ex1-3: 54] (puzzle: Exclusion 1)				24.6		
GACUGCUGAGGAUAUACAUGAGGAUCACCCAUGUGCUUCAGUAUCGAAAGAUGCAUGGGUAGAAGGUGGUAGUC [LRO-Excl3-09] (puzzle: Exclusion 3)				80.1		
UGGGUACUCCAUAGAAGAGACAUGAGGAUCACCCAUGUAGGGCAAGCUUUUUGCUCGUCUUAGGAUGAGGGAUAGGA [JR_SV3TOV1_Sub014] (puzzle: Sensor v3, turn-off variant 1)				79.1	171	188
GGUUGGCGAGGAUAUACAUGAGGAUCACCCAUGUGAGAGAAAUAAGUGAGGAAGAAAAGUAGAAGGCGCUGACG [salish99_ex3_r3_014] (puzzle: Exclusion 3)				59.4	222	79.2
AAUAGUCGGUAGGAUAUCCACGGAUGACCGGCAGGAGAAGGGCCGACUUGAGGAUCACCCAAGUAUGGUCCUAA [Texeonxe] (Eterna round: R97, puzzle: Exclusion 6)	15.9		14.5			

— the supplement of paper PMC9170038
